Measurements published in publication PMC11570498, “A promiscuous mechanism to phase separate eukaryotic carbon fixation in the green lineage” (Nature Plants, 2024).

What was measured:
[1] = biological target: T1, CsLinker α3–α4 fragment (residues 142–272) (Chlorella sorokiniana UTEX1230); experiment: SPR; Rubisco immobilised as bait, fragments as analyte (prey); Biacore T100/T200, 25 °C; analyte injected at 15 μl/min for 30 s, 360 s dissociation; fit of y = Bmax·x/(KD + x); apparent KD; triplicate; conditions: both partners purified
T1 construct: CsLinker (CSI2_123000012064), Chlorella sorokiniana UTEX1230, residues 142–272: two repeats with predicted α-helices 3 and 4; residues numbered by their position in the full-length CsLinker; From the plasmid His-mEGFP-TEV-α3–α4-TEV-MBP-His; also called α3–α4 double repeat fragment; source: E. coli BL21 (DE3), purified (IMAC, TEV cleavage, second IMAC, SEC); not shown: His6, N-terminal, cleaved; …

[2] = biological target: T2, CsLinker α3 fragment (residues 142–207) (Chlorella sorokiniana UTEX1230); experiment: as above; conditions: both partners purified
T2 construct: CsLinker (CSI2_123000012064), Chlorella sorokiniana UTEX1230, residues 142–207: one whole repeat centred on predicted α-helix 3; residues numbered by their position in the full-length CsLinker; From the plasmid His-mEGFP-TEV-α3-TEV-MBP-His; also called single helix α3 fragment; source: E. coli BL21 (DE3), purified (IMAC, TEV cleavage, second IMAC, SEC); not shown: His6, N-terminal, cleaved; …

- Kd [1]: 1560 nM
- Kd [2]: 162 µM
B1: Ulva mutabilis Rubisco (UmRubisco) (complex)
chain 1: GVKDYRLTYYTPDYQVKDTDILAAFRMTPQPGVPAEEAGAAVAAESSTGTWTTVWTDGLTSLDRYKGRCYDIEPLGEDDQYIAYIAYPLDLFEEGSVTNLFTSIVGNVFGFKALRALRLEDLRIPPAYVKTFQGPPHGIQVERDKLNKYGRGLLGCTIKPKLGLSAKNYGRAVYECLRGGLDFTKDDENVNSQPFMRWRDRFLFVAEAIYKSQSETGEVKGHYLNATAGTCEEMMERGQFAKDLGVPIVMHDYITGGFTANTTLAHFCRASGLLLHIHRAMHAVIDRQRNHGIHFRVLAKILRMSGGDHLHSGTVVGKLEGEREITLGFVDLMRDDYIEKDRSRGIYFTQDWVSLPGTMPVASGGIHVWHMPALVEIFGDDACLQFGGGTLGHPWGNAPGAAANRVALEACTQARNEGRDLASEGGDVIRAA
chain 2: MRVWTPHNNKMFETFSFLPPLSHGEIARQVDYIIANGWTSCLEFADSDCAYVQDKANIRFGNSASCNYYDNRYWTMWKLPMFGCTNPNEVLGEIDSCKRAFPESYIRLVAFDNIAQCQTIGFLVNRPPRSGDFQSPENRSVA
